Columns and labels:
[1] = molecular target: T1, serotonin 5HT1D receptor (Homo sapiens, UniProt P28221); assay: CPRG assay, MMY11 cells expressing 5-HT1D receptor plus Gα subunit; assay type: cell-based; parameters: key: weak activation insufficient to carry out curve-fitting was detected; NC: no coupling was detected
T1 construct: expressed in transfected cells; host or cells: Saccharomyces cerevisiae strain MMY11, plasmid pDT-PGK-5-HT1D
Method: Assay for combined FUS1-lacZ and FUS1-HIS3 Expression. In vivo assays of reporter gene induction (CPRG assays) were carried out by suspending cells to 0.02 OD600 in 200 μl SC-glucose (2%) lacking tryptophan, uracil and histidine. This medium was supplemented with agonists, and additionally 10 mM 3-aminotriazole and the β-galactosidase (lacZ) substrate chlorophenolred-β-D-galactopyranoside (CPRG; Boehringer) to a concentration of 0.1 mg/ml. To visualise the colour change reaction, the medium was buffered to pH 7 with 0.1 M sodium phosphate. The assay was conducted in a 96-well microtitre plate format. Plates were incubated for 24 hours without agitation, and absorbance at 570 nm was determined using a Victor microtitre plate reader (Wallac). EC50 values (+/−standard error) were estimated by curve-fitting, using the Robosage software package.
MMY11 was used in an experiment in which cells were transformed with pairs of plasmids as before, one to express a Gα subunit and the other a receptor expression construct. […] Where pheromone response pathway activation was detected, the agonist concentration required to yield a half-maximal response (EC50+/−standard error; all values in nM except where otherwise indicated) was determined by curve-fitting, and is shown in Table 4A. Where no coupling was detected, this is also indicated (NC).

[2] = test system: pheromone response pathway (FUS1-LacZ; Ste2p receptor); assay: ONPG β-galactosidase assay of FUS1-LacZ in extracts of MMY9 cells; assay type: cell-based, Saccharomyces cerevisiae; conditions: G protein expressed from GPA1 promoter
Method: Assays for FUS1-IacZ Expression. β-galactosidase activities in cell extracts were measured with two assays. In the first assay (ONPG assay), cell extracts were incubated with the substrate ONPG as described by (37). Units were defined as (A420×1000)/(OD600x×t×v) (25). In the chemiluminescent assay, cells were grown to late logarithmic phase and diluted to 0.02 OD600 in 100 μl SC-WH medium in the presence or absence of 1 μM α-factor in 96-well microtitre plates. After incubation (30° C.; 6 hours), 20 μl of cells were removed and mixed with 20 μl assay mix (125 mM sodium phosphate pH 7.6, 15 mM MgSO4, 200 μM Galacton-Star β-galactosidase substrate (Tropix), 10% (v/v) Sapphire II (Tropix), 1 U/μl oxalyticase (Enzogenetics)). After incubation (30° C.; 1 hr) chemiluminescence was determined in a Top-count scintillation counter (Packard).
The Gα15/Gα16 subunits are reported to interact with a much broader range of receptors than is typical for a Gα subunit, and have the ability to couple receptors which normally interact with Gαi, Gαs or Gαq (26). […] We constructed a plasmid encoding a Gpa1/Gα16 C-terminal domain chimera (pRS314-Gpa1/Gα16; FIG. 5b); FIG. 6h) derived from the same centromeric vector as used for expression of functional chimeras described above. The level of FUS1-LacZ induction in MMY9 cells expressing the Gpa1/Gα16 chimera was determined by preparing cell extracts, and incubating them with the LacZ substrate o-Nitrophenyl β-D-galactopyranoside (ONPG; see Materials and Methods). Gpa1/Gα16 reduced FUS1-LacZ expression resulting in β-galactosidase activity of 79+/−8 units (Table 2). This level was intermediate between the activity of control cells transformed with vector (239+/−30 units), in which the pathway is constitutively activated due to the absence of Gα, and the basal activity in cells producing wild-type Gpa1p (19+/−4 units).

[3] = molecular target: T2, purinergic nucleotide receptor, P2Y2 (Homo sapiens, UniProt P41231); assay: Reverse halo assay for FUS1-HIS3 expression, MMY9 cells, P2Y2; assay type: cell-based; conditions: MMY9 cells with pRS314-GPA1 and P2Y2 receptor, 100 nmol UTP
T2 construct: expressed in transfected cells; host or cells: Saccharomyces cerevisiae strains MMY9 and MMY11, plasmid pDT-PGK-P2Y2
T2 sequence (P41231 whole entry): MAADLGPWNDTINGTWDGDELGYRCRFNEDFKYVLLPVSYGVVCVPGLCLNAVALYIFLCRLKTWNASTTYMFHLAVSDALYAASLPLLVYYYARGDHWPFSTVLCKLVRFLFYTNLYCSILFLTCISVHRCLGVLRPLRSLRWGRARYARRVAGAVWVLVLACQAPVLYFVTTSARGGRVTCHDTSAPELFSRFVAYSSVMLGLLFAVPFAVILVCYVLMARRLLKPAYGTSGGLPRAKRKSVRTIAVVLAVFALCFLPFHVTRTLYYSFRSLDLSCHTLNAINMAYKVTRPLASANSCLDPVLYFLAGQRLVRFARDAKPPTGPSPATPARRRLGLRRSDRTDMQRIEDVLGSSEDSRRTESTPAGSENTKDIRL
Method: Assay for FUS1-HIS3 Expression. Reverse halo assays were carried out by growing MMY9 cells to early stationary phase (OD600≈4) in liquid SC-glucose (2%) medium lacking tryptophan and uracil. A uniform layer of cells (5×10^7) was plated to 22.5 cm by 22.5 cm bioassay dishes (Nunc) in 100 ml SC-glucose agar (1%) equilibrated to 50° C. This medium lacked tryptophan, uracil and histidine, and was supplemented with 10 mM 3-aminotriazole, and buffered to pH 7.0 with 0.1M sodium phosphate. Antibiotic discs were placed on the solidified agar, and a volume of agonist solution (1-5 μl) was applied to each disc. Plates were incubated at 30° C. for 3 days.
The four receptors were: the melatonin ML1B receptor, the serotonin 5HT1A receptor, the somatostatin SST2 receptor and the purinergic nucleotide receptor, P2Y2. […] Activation of the pheromone response pathway was monitored with two integrated reporter genes: […] allowing a growth readout in medium lacking histidine, and FUS1-lacZ allowing a β-galactosidase readout. […] Agonist-dependent activation of FUS1-HIS3 was determined by reverse halo assay in which agonists were applied to the filter discs in the arrangement shown in panel A, in quantities as follows: 3 nmol of somatostatin-14 (S-14); 40 nmol of melatonin (Mel); 3 nmol of α-factor; 100 nmol of UTP; 40 nmol of serotonin (5-HT). […]

T1 sequence (P28221 whole entry): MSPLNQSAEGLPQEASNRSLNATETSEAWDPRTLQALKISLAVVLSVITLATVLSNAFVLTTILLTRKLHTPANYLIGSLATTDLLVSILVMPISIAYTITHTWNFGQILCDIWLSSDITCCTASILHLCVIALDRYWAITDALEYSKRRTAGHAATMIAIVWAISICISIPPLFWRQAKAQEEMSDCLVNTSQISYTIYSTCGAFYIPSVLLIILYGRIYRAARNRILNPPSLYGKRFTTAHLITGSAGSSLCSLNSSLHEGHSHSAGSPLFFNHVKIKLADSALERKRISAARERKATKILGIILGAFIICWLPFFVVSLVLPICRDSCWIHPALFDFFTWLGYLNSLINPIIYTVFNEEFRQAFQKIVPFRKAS

B1: Gpa1p: endogenous yeast Gα subunit, product of the GPA1 gene (protein, UniProt P08539 2-472, looked up)
Guanine nucleotide-binding …: GCTVSTQTIGDESDPFLQNKRANDVIEQSLQLEKQRDKNEIKLLLLGAGESGKSTVLKQLKLLHQGGFSHQERLQYAQVIWADAIQSMKILIIQARKLGIQLDCDDPINNKDLFACKRILLKAKALDYINASVAGGSDFLNDYVLKYSERYETRRRVQSTGRAKAAFDEDGNISNVKSDTDRDAETVTQNEDADRNNSSRINLQDICKDLNQEGDDQMFVRKTSREIQGQNRRNLIHEDIAKAIKQLWNNDKGIKQCFARSNEFQLEGSAAYYFDNIEKFASPNYVCTDEDILKGRIKTTGITETEFNIGSSKFKVLDAGGQRSERKKWIHCFEGITAVLFVLAMSEYDQMLFEDERVNRMHESIMLFDTLLNSKWFKDTPFILFLNKIDLFEEKVKSMPIRKYFPDYQGRVGDAEAGLKYFEKIFLSLNKTNKPIYVKRTCATDTQTMKFVLSAVTDLIIQQNLKKIGII
coupling class where no EC50 could be fitted [1]: NC
β-galactosidase activity (FUS1-LacZ), No Alpha Factor [2]: 19+/−4 units
β-galactosidase activity (FUS1-LacZ), Plus Alpha Factor [2]: 273 +/− 49 units
β-galactosidase activity (FUS1-LacZ), No Alpha Factor ([2]; listed as GPA1): 19 +/− 4 units
agonist-dependent activation of FUS1-HIS3 (halo of cell growth) [3]: responded to the agonist UTP
